Experimental data from patent publication US20110287512.

Columns and labels:
[1] = system: ZFP7263 (host, center linker TGSQKP) (artificial); experiment: ELONA
[2] = system: ZFP7263 linker LRQKDERP center linker F2-F3 TGSQKP replaced by LRQKDERP (artificial); experiment: ELONA; conditions: normalized ELISA score
[3] = system: ZFP7263 linker TGEGGKP center linker F2-F3 TGSQKP replaced by TGEGGKP (artificial); experiment: ELONA; conditions: normalized ELISA score
[4] = system: ZFP7263 linker TGGGGSQKP center linker F2-F3 TGSQKP replaced by TGGGGSQKP (artificial); experiment: ELONA; conditions: normalized ELISA score
[5] = system: ZFP7263 linker TPLCQRPMKQKP center linker F2-F3 TGSQKP replaced by TPLCQRPMKQKP (artificial); experiment: ELONA; conditions: normalized ELISA score
[6] = system: ZFP7263 linker TPNRCPPTKP center linker F2-F3 TGSQKP replaced by TPNRCPPTKP (artificial); experiment: ELONA; conditions: normalized ELISA score
[7] = system: ZFP7263 linker TPRPPIPKP center linker F2-F3 TGSQKP replaced by TPRPPIPKP (artificial); experiment: ELONA; conditions: normalized ELISA score
[8] = system: ZFP7263 linker TQRPQIPPKP center linker F2-F3 TGSQKP replaced by TQRPQIPPKP (artificial); experiment: ELONA; conditions: normalized ELISA score
[9] = system: ZFP7263 linker TYPRPLLAKP center linker F2-F3 TGSQKP replaced by TYPRPLLAKP (artificial); experiment: ELONA; conditions: normalized ELISA score
[10] = system: ZFP7264 (host, center linker TGSQKP) (artificial); experiment: ELONA
[11] = system: ZFP7264 linker 1e center linker F2-F3 TGSQKP replaced by TVPRPTPPKP (artificial); experiment: ELONA; conditions: normalized ELISA score
[12] = system: ZFP7264 linker LRQKDERP center linker F2-F3 TGSQKP replaced by LRQKDERP (artificial); experiment: ELONA; conditions: normalized ELISA score
[13] = system: ZFP7264 linker TGEGGKP center linker F2-F3 TGSQKP replaced by TGEGGKP (artificial); experiment: ELONA; conditions: normalized ELISA score
[14] = system: ZFP7264 linker TGGGGSQKP center linker F2-F3 TGSQKP replaced by TGGGGSQKP (artificial); experiment: ELONA; conditions: normalized ELISA score
[15] = system: ZFP7264 linker TGLPKPKP center linker F2-F3 TGSQKP replaced by TGLPKPKP (artificial); experiment: ELONA; conditions: normalized ELISA score
[16] = system: ZFP7264 linker TKHGTPKHREDKP center linker F2-F3 TGSQKP replaced by TKHGTPKHREDKP (artificial); experiment: ELONA; conditions: normalized ELISA score
[17] = system: ZFP7264 linker TLPLPRPKP center linker F2-F3 TGSQKP replaced by TLPLPRPKP (artificial); experiment: ELONA; conditions: normalized ELISA score
[18] = system: ZFP7264 linker TLPPCFRPKP center linker F2-F3 TGSQKP replaced by TLPPCFRPKP (artificial); experiment: ELONA; conditions: normalized ELISA score
[19] = system: ZFP7264 linker TSRPRPKP center linker F2-F3 TGSQKP replaced by TSRPRPKP (artificial); experiment: ELONA; conditions: normalized ELISA score
[20] = system: ZFP7264 linker LRQKDERP (artificial)
[21] = system: ZFP7264 linker TGEGGKP (artificial)
[22] = system: ZFP7264 linker TGGGGSQKP (artificial)
[23] = system: ZFP7264 linker TGLPKPKP (artificial)
[24] = system: ZFP7264 linker TKHGTPKHREDKP (artificial)
[25] = system: ZFP7264 linker TLPLPRPKP (artificial)
[26] = system: ZFP7264 linker TLPPCFRPKP (artificial)
[27] = system: ZFP7264 linker TSRPRPKP (artificial)
[28] = ELISA normalized to host on 0-bp gap target (reference)

| Sequence | binding signal [2] | binding signal [3] | binding signal [4] | binding signal [5] | binding signal [6] | binding signal [7] | binding signal [8] | binding signal [9] | binding signal [11] | binding signal [12] | binding signal [13] | binding signal [14] | binding signal [15] | binding signal [16] | binding signal [17] | binding signal [18] | binding signal [19] | binding signal ([10]; normalized ELISA score) | other results |
| --- | --- | --- | --- | --- | --- | --- | --- | --- | --- | --- | --- | --- | --- | --- | --- | --- | --- | --- | --- |
| TTAGCCACTCTGTGGAAGTGTATC (double strand) [7263 target 0-bp gap] | 0.25 | 1.3 | 0.51 | 0.28 | 0.31 | 0.14 | 0.15 | 0.29 |  |  |  |  |  |  |  |  |  |  | binding signal [1, 28]: 1 |
| TTAGCCACTCTGTTGGAAGTGTATC (double strand) [7263 target gap T] | 0.13 | 0.04 | 0.39 | 4 | 3.16 | 2.09 | 3.05 | 3.97 |  |  |  |  |  |  |  |  |  |  | binding signal ([1]; normalized ELISA score): 0.02 |
| TTAGTTAAAGCGGCTCCGAATATC (double strand) [7264 target 0-bp gap] |  |  |  |  |  |  |  |  | 0.16 | 0.26 | 1.39 | 0.46 | 0.14 | 0.01 | 0.25 | 0.36 | 0.18 |  | binding signal [10, 28]: 1 |
| TTAGTTAAAGCGTGCTCCGAATATC (double strand) [7264 target gap T] |  |  |  |  |  |  |  |  | 2.55 | 0.1 | 0.08 | 0.17 | 0.86 | 0.01 | 1.36 | 2.72 | 2.07 | 0 |  |
| TTAGTTAAAGCGTTGCTCCGAATATC (double strand) [7264 target gap TT] |  |  |  |  |  |  |  |  | 0.05 |  |  |  |  |  |  |  |  | 0 | binding signal (normalized ELISA) [20]: 0.02; binding signal (normalized ELISA) [21]: 0.03; binding signal (normalized ELISA) [22]: 0.03; binding signal (normalized ELISA) [23]: 0.03; binding signal (normalized ELISA) [24]: 0; binding signal (normalized ELISA) [25]: 0.04; binding signal (normalized ELISA) [26]: 0.06; binding signal (normalized ELISA) [27]: 0.03 |
